From patent US20230080842A1 (WUHAN YZY BIOPHARMA, published 2023)

Biological target: T1, Human SLAMF7 (human, UniProt Q9NQ25 23-226)
T1 construct: also called SLAMF7 antigen; not shown: His tag
Assay: ELISA, plate coated with His-tagged antigen

Binder	EC50
Y216-A1 (bispecific antibody, human IgG1, kappa, structure 2 IgG(H)-ScFv, A series; IgG Elotuzumab (anti-SLAMF7), scFv NM3E2 (anti-CD16)) light: DIQMTQSPSSLSASVGDRVTITCKASQDVGIAVAWYQQKPGKVPKLLIYWASTRHTGVPDRFSGSGSGTDFTLTISSLQPEDVATYYCQQYSSYPYTFGQGTKVEIKRTVAAPSVFIFPPSDEQLKSGTASVVCLLNNFYPREAKVQWKVDNALQSGNSQESVTEQDSKDSTYSLSSTLTLSKADYEKHKVYACEVTHQGLSSPVTKSFNRGEC heavy: EVQLVESGGGLVQPGGSLRLSCAASGFDFSRYWMSWVRQAPGKGLEWIGEINPDSSTINYAPSLKDKFIISRDNAKNSLYLQMNSLRAEDTAVYYCARPDGNYWYFDVWGQGTLVTVSSASTKGPSVFPLAPSSKSTSGGTAALGCLVKDYFPEPVTVSWNSGALTSGVHTFPAVLQSSGLYSLSSVVTVPSSSLGTQTYICNVNHKPSNTKVDKKVEPKSCDKTHTCPPCPAPPVAGPSVFLFPPKPKDTLMISRTPEVTCVVVDVSHEAPEVQFNWYVDGVEVHNAKTKPREEQFNSTFRVVSVLTVVHQDWLNGKEYKCKVSNKGLPAPIEKTISKTKGQPREPQVYTLPPSRDELTKNQVSLTCLVKGFYPSDIAVEWESNGQPENNYKTTPPVLDSDGSFFLYSKLTVDKSRWQQGNVFSCSVMHEALHNHYTQKSLSLSPGAGGGGSGGGGSGGGGSGEVQLVESGGGVVRPGGSLRLSCAASGFTFDDYGMSWVRQAPGKGLEWVSGINWNGGSTGYADSVKGRFTISRDNAKNSLYLQMNSLRAEDTAVYYCARGRSLLFDYWGQGTLVTVSRGGGGSGGGGSGGGGSSELTQDPAVSVALGQTVRITCQGDSLRSYYASWYQQKPGQAPVLVIYGKNNRPSGIPDRFSGSSSGNTASLTITGAQAEDEADYYCNSRDSSGNHVVFGGGTKLTVL	715 pM
Y216-B1 (bispecific antibody, human IgG1, kappa, structure 2 IgG(H)-ScFv, B series; IgG Elotuzumab (anti-SLAMF7), scFv NM3E2 (anti-CD16)) light: DIQMTQSPSSLSASVGDRVTITCKASQDVGIAVAWYQQKPGKVPKLLIYWASTRHTGVPDRFSGSGSGTDFTLTISSLQPEDVATYYCQQYSSYPYTFGQGTKVEIKRTVAAPSVFIFPPSDEQLKSGTASVVCLLNNFYPREAKVQWKVDNALQSGNSQESVTEQDSKDSTYSLSSTLTLSKADYEKHKVYACEVTHQGLSSPVTKSFNRGEC heavy: EVQLVESGGGLVQPGGSLRLSCAASGFDFSRYWMSWVRQAPGKGLEWIGEINPDSSTINYAPSLKDKFIISRDNAKNSLYLQMNSLRAEDTAVYYCARPDGNYWYFDVWGQGTLVTVSSASTKGPSVFPLAPSSKSTSGGTAALGCLVKDYFPEPVTVSWNSGALTSGVHTFPAVLQSSGLYSLSSVVTVPSSSLGTQTYICNVNHKPSNTKVDKKVEPKSCDKTHTCPPCPAPPVAGPSVFLFPPKPKDTLMISRTPEVTCVVVDVSHEAPEVQFNWYVDGVEVHNAKTKPREEQFNSTFRVVSVLTVVHQDWLNGKEYKCKVSNKGLPAPIEKTISKTKGQPREPQVYTLPPSRDELTKNQVSLTCLVKGFYPSDIAVEWESNGQPENNYKTTPPVLDSDGSFFLYSKLTVDKSRWQQGNVFSCSVMHEALHNHYTQKSLSLSPGAGGGGSGGGGSGGGGSGSELTQDPAVSVALGQTVRITCQGDSLRSYYASWYQQKPGQAPVLVIYGKNNRPSGIPDRFSGSSSGNTASLTITGAQAEDEADYYCNSRDSSGNHVVFGGGTKLTVLGGGGSGGGGSGGGGSEVQLVESGGGVVRPGGSLRLSCAASGFTFDDYGMSWVRQAPGKGLEWVSGINWNGGSTGYADSVKGRFTISRDNAKNSLYLQMNSLRAEDTAVYYCARGRSLLFDYWGQGTLVTVSR	499 pM
Y316-A1 (bispecific antibody, structure 3 Tandem-ScFv-Fc, A series, two identical fusion peptides; scFv Elotuzumab (anti-SLAMF7), scFv NM3E2 (anti-CD16)) EVQLVESGGGLVQPGGSLRLSCAASGFDFSRYWMSWVRQAPGKGLEWIGEINPDSSTINYAPSLKDKFIISRDNAKNSLYLQMNSLRAEDTAVYYCARPDGNYWYFDVWGQGTLVTVSSGGGGSGGGGSGGGGSDIQMTQSPSSLSASVGDRVTITCKASQDVGIAVAWYQQKPGKVPKLLIYWASTRHTGVPDRFSGSGSGTDFTLTISSLQPEDVATYYCQQYSSYPYTFGQGTKVEIKGGGGSASEVQLVESGGGVVRPGGSLRLSCAASGFTFDDYGMSWVRQAPGKGLEWVSGINWNGGSTGYADSVKGRFTISRDNAKNSLYLQMNSLRAEDTAVYYCARGRSLLFDYWGQGTLVTVSRGGGGSGGGGSGGGGSSELTQDPAVSVALGQTVRITCQGDSLRSYYASWYQQKPGQAPVLVIYGKNNRPSGIPDRFSGSSSGNTASLTITGAQAEDEADYYCNSRDSSGNHVVFGGGTKLTVLDKTHTCPPCPAPPVAGPSVFLFPPKPKDTLMISRTPEVTCVVVDVSHEAPEVQFNWYVDGVEVHNAKTKPREEQFNSTFRVVSVLTVVHQDWLNGKEYKCKVSNKGLPAPIEKTISKTKGQPREPQVYTLPPSRDELTKNQVSLTCLVKGFYPSDIAVEWESNGQPENNYKTTPPVLDSDGSFFLYSKLTVDKSRWQQGNVFSCSVMHEALHNHYTQKSLSLSPGK	9180 pM
Y116-B1 (bispecific antibody) light: DIQMTQSPSSLSASVGDRVTITCKASQDVGIAVAWYQQKPGKVPKLLIYWASTRHTGVPDRFSGSGSGTDFTLTISSLQPEDVATYYCQQYSSYPYTFGQGTKVEIKRTVAAPSVFIFPPSDEQLKSGTASVVCLLNNFYPREAKVQWKVDNALQSGNSQESVTEQDSKDSTYSLSSTLTLSKADYEKHKVYACEVTHQGLSSPVTKSFNRGECGAAAGGGGSGGGGSGGGGSEVQLVESGGGVVRPGGSLRLSCAASGFTFDDYGMSWVRQAPGKGLEWVSGINWNGGSTGYADSVKGRFTISRDNAKNSLYLQMNSLRAEDTAVYYCARGRSLLFDYWGQGTLVTVSR heavy: EVQLVESGGGLVQPGGSLRLSCAASGFDFSRYWMSWVRQAPGKGLEWIGEINPDSSTINYAPSLKDKFIISRDNAKNSLYLQMNSLRAEDTAVYYCARPDGNYWYFDVWGQGTLVTVSSASTKGPSVFPLAPSSKSTSGGTAALGCLVKDYFPEPVTVSWNSGALTSGVHTFPAVLQSSGLYSLSSVVTVPSSSLGTQTYICNVNHKPSNTKVDKKVEPKSCGAAAGGGGSGGGGSSELTQDPAVSVALGQTVRITCQGDSLRSYYASWYQQKPGQAPVLVIYGKNNRPSGIPDRFSGSSSGNTASLTITGAQAEDEADYYCNSRDSSGNHVVFGGGTKLTVLGYPGGGGSDKTHTCPPCPAPPVAGPSVFLFPPKPKDTLMISRTPEVTCVVVDVSHEAPEVQFNWYVDGVEVHNAKTKPREEQFNSTFRVVSVLTVVHQDWLNGKEYKCKVSNKGLPAPIEKTISKTKGQPREPQVYTLPPSRDELTKNQVSLTCLVKGFYPSDIAVEWESNGQPENNYKTTPPVLDSDGSFFLYSKLTVDKSRWQQGNVFSCSVMHEALHNHYTQKSLSLSPGK	636 pM
Y116-B2 (bispecific antibody) light: DIQMTQSPSSLSASVGDRVTITCKASQDVGIAVAWYQQKPGKVPKLLIYWASTRHTGVPDRFSGSGSGTDFTLTISSLQPEDVATYYCQQYSSYPYTFGQGTKVEIKRTVAAPSVFIFPPSDEQLKSGTASVVCLLNNFYPREAKVQWKVDNALQSGNSQESVTEQDSKDSTYSLSSTLTLSKADYEKHKVYACEVTHQGLSSPVTKSFNRGECGGGGSEAAAKGGGGSEVQLVESGGGVVRPGGSLRLSCAASGFTFDDYGMSWVRQAPGKGLEWVSGINWNGGSTGYADSVKGRFTISRDNAKNSLYLQMNSLRAEDTAVYYCARGRSLLFDYWGQGTLVTVSR heavy: EVQLVESGGGLVQPGGSLRLSCAASGFDFSRYWMSWVRQAPGKGLEWIGEINPDSSTINYAPSLKDKFIISRDNAKNSLYLQMNSLRAEDTAVYYCARPDGNYWYFDVWGQGTLVTVSSASTKGPSVFPLAPSSKSTSGGTAALGCLVKDYFPEPVTVSWNSGALTSGVHTFPAVLQSSGLYSLSSVVTVPSSSLGTQTYICNVNHKPSNTKVDKKVEPKSCGGGGSEAAAKGGGGSSELTQDPAVSVALGQTVRITCQGDSLRSYYASWYQQKPGQAPVLVIYGKNNRPSGIPDRFSGSSSGNTASLTITGAQAEDEADYYCNSRDSSGNHVVFGGGTKLTVLGYPGGGGSDKTHTCPPCPAPPVAGPSVFLFPPKPKDTLMISRTPEVTCVVVDVSHEAPEVQFNWYVDGVEVHNAKTKPREEQFNSTFRVVSVLTVVHQDWLNGKEYKCKVSNKGLPAPIEKTISKTKGQPREPQVYTLPPSRDELTKNQVSLTCLVKGFYPSDIAVEWESNGQPENNYKTTPPVLDSDGSFFLYSKLTVDKSRWQQGNVFSCSVMHEALHNHYTQKSLSLSPGK	648 pM
Y416-B1 (bispecific antibody, human IgG1, kappa) light: EVQLVESGGGLVQPGGSLRLSCAASGFDFSRYWMSWVRQAPGKGLEWIGEINPDSSTINYAPSLKDKFIISRDNAKNSLYLQMNSLRAEDTAVYYCARPDGNYWYFDVWGQGTLVTVSSGGGGSGGGGSGGGGSSELTQDPAVSVALGQTVRITCQGDSLRSYYASWYQQKPGQAPVLVIYGKNNRPSGIPDRFSGSSSGNTASLTITGAQAEDEADYYCNSRDSSGNHVVFGGGTKLTVLRTVAAPSVFIFPPSDEQLKSGTASVVCLLNNFYPREAKVQWKVDNALQSGNSQESVTEQDSKDSTYSLSSTLTLSKADYEKHKVYACEVTHQGLSSPVTKSFNRGEC heavy: DIQMTQSPSSLSASVGDRVTITCKASQDVGIAVAWYQQKPGKVPKLLIYWASTRHTGVPDRFSGSGSGTDFTLTISSLQPEDVATYYCQQYSSYPYTFGQGTKVEIKGGGGSGGGGSGGGGSEVQLVESGGGVVRPGGSLRLSCAASGFTFDDYGMSWVRQAPGKGLEWVSGINWNGGSTGYADSVKGRFTISRDNAKNSLYLQMNSLRAEDTAVYYCARGRSLLFDYWGQGTLVTVSRASTKGPSVFPLAPSSKSTSGGTAALGCLVKDYFPEPVTVSWNSGALTSGVHTFPAVLQSSGLYSLSSVVTVPSSSLGTQTYICNVNHKPSNTKVDKKVEPKSCDKTHTCPPCPAPPVAGPSVFLFPPKPKDTLMISRTPEVTCVVVDVSHEAPEVQFNWYVDGVEVHNAKTKPREEQFNSTFRVVSVLTVVHQDWLNGKEYKCKVSNKGLPAPIEKTISKTKGQPREPQVYTLPPSRDELTKNQVSLTCLVKGFYPSDIAVEWESNGQPENNYKTTPPVLDSDGSFFLYSKLTVDKSRWQQGNVFSCSVMHEALHNHYTQKSLSLSPGK	5590 pM
ElotuzumAb (antibody, human IgG1, kappa, V domains shown, anti-SLAMF7 monoclonal antibody, human IgG1 constant domains, kappa) VH: EVQLVESGGGLVQPGGSLRLSCAASGFDFSRYWMSWVRQAPGKGLEWIGEINPDSSTINYAPSLKDKFIISRDNAKNSLYLQMNSLRAEDTAVYYCARPDGNYWYFDVWGQGTLVTVSS VL: DIQMTQSPSSLSASVGDRVTITCKASQDVGIAVAWYQQKPGKVPKLLIYWASTRHTGVPDRFSGSGSGTDFTLTISSLQPEDVATYYCQQYSSYPYTFGQGTKVEIKR	628 pM
